From publication PMC9737104, “Effects of Molecular Crowding and Betaine on HSPB5 Interactions, with Target Proteins Differing in the Quaternary Structure and Aggregation Mechanism” (International Journal of Molecular Sciences, 2022)

Biological target: the molecule itself
Test: AUC; sedimentation velocity at 25 °C, 48,000 rpm; GDH 0.2 mg/mL with HSPB5 0.05 mg/mL, 25 mg/mL PEG and 1 M betaine, heated 10 min at 50 °C before the run; 0.1 M Na-phosphate pH 7.6, 0.01 M NaCl

B1: bovine liver glutamate dehydrogenase, heated 10 min at 50 °C (enzyme)
chain: not shown
notes: bovine liver glutamate dehydrogenase [EC 1.4.1.2-4], homohexamer of about 360 kDa; also called GDH; source: bought: Sigma-Aldrich (suspension in ammonium sulfate), desalted on a PD-10 column
  stoichiometry N: 6
